Target: β:C12A yeast αβ-tubulin (yeast) (UniProt P09733)
Test: microtubule elongation rates by time-lapse DIC microscopy

“β:C12A yeast αβ-tubulin (from UniProt P09733 1-447; P02557 1-457) (complex)” was tested, and the affinity of the interactions that drive elongation (extrapolation to the x-axis) was 42 nM and the kon was 1.22e+07 M⁻¹ s⁻¹.
